This passage reports processivity factor fp (enzymes reaching the hairpin apex over total bursts), magnetic tweezers on the 1.2 kb DNA hairpin (fraction (24 of 25 bursts)), share of Upf1-CH-HD/Upf2 binding events with a normal rising edge but a falling edge interrupted by blocking (magnetic tweezers, DNA hairpin) and activity ratio Ac=u/(u+b) (unwinding events over unwinding plus binding events), magnetic tweezers on a DNA hairpin; Upf1-CH-HD alone Ac=49% results from PMC4506499.

In experiment [1] the target is T1, Human Upf1-CH-HD (115-914 amino acids) (human) (UniProt Q92900).
T1 sequence: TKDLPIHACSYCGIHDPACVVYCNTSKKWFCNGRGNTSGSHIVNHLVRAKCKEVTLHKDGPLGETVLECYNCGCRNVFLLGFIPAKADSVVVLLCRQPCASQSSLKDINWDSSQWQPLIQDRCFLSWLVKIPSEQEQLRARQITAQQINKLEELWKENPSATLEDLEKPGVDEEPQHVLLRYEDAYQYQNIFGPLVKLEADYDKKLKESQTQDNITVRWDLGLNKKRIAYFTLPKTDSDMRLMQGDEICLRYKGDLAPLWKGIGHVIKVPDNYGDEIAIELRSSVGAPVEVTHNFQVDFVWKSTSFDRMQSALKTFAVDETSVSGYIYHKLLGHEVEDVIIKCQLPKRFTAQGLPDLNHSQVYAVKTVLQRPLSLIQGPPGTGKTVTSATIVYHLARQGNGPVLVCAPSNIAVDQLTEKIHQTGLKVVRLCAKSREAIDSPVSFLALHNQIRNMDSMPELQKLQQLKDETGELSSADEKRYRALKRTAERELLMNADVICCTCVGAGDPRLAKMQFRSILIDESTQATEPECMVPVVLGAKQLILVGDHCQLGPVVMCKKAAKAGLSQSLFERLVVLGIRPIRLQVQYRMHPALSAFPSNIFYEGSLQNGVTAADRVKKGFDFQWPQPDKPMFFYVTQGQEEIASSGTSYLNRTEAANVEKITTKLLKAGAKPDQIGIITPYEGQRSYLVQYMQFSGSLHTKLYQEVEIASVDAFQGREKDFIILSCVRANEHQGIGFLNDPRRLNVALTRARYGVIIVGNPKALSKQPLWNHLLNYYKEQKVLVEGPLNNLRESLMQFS

Experiment [2] deals with T1, Human Upf1-CH-HD (115-914 amino acids) (human). The source holds these as a separate data set.
For experiment [3] the target is unchanged. This is another data set of the same source.

In the case of “Human Upf2 (761-1227 amino acids) (from UniProt Q9HAU5 761-1227) (domain or fragment)”, the processivity factor fp (enzymes reaching the hairpin apex over total bursts), magnetic tweezers on the 1.2 kb DNA hairpin (fraction (24 of 25 bursts)) in experiment [1] was 0.96. In experiment [2], this substance showed a share of Upf1-CH-HD/Upf2 binding events with a normal rising edge but a falling edge interrupted by blocking (magnetic tweezers, DNA hairpin) of 76%. The activity ratio Ac=u/(u+b) (unwinding events over unwinding plus binding events), magnetic tweezers on a DNA hairpin; Upf1-CH-HD alone Ac=49% in experiment [3] turned out to be 81%.
